4 sequences from the supplement of paper PMC5998384 can be followed below.

For data set [1], the system named is HeLa Kyoto. The data set can be described thus: solubility change mitosis vs G1/S (difference of NP-40 vs SDS log2 ratios) (log2 ratio difference); higher = more soluble in mitosis.
Data set [2] has as its system HeLa Kyoto. Description: thermal stability score vs G1/S (z-score of summed log2 fold changes over temperatures); higher = more thermally stable than in G1/S.
The subject of data set [3] is HeLa Kyoto. Description: solubility in G1/S (NP-40 vs SDS abundance) (log2 ratio); higher = more soluble. Particulars: cell cycle stage: G1/S.
For data set [4], the system named is HeLa Kyoto. Description: melting temperature (median over replicates), in situ; higher = more thermally stable.
The mark [5] stands for this setting: cell cycle stage: early G1 (4.5 h after nocodazole release).
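Throughout, for melting temperature (median over replicates), in situ: HeLa Kyoto cells synchronized by double thymidine or nocodazole block, proteins quantified by TMT10plex mass spectrometry, three independent biological replicates.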
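Throughout, for solubility change mitosis vs G1/S (difference of NP-40 vs SDS log2 ratios): synchronized HeLa Kyoto cells (double thymidine block for G1/S, nocodazole release for mitosis), protein amounts in NP-40 versus SDS lysates quantified by mass spectrometry, three biological replicates.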
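Throughout, for solubility in G1/S (NP-40 vs SDS abundance): HeLa Kyoto cells arrested at G1/S by double thymidine block, proteins quantified by TMT10plex mass spectrometry in mild NP-40 versus SDS extracts, three biological replicates.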
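Throughout, for thermal stability score vs G1/S (z-score of summed log2 fold changes over temperatures): synchronized HeLa Kyoto cells, proteins quantified by TMT10plex mass spectrometry, three biological replicates, mitosis taken 0.5 h after nocodazole release, G1/S directly after double thymidine block.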

With “MKLWVSALLMAWFGVLSCVQAEFFTSIGHMTDLIYAEKELVQSLKEYILVEEAKLSKIKSWANKMEALTSKSAADAEGYLAHPVNAYKLVKRLNTDWPALEDLVLQDSAAGFIANLSVQRQFFPTDEDEIGAAKALMRLQDTYRLDPGTISRGELPGTKYQAMLSVDDCFGMGRSAYNEGDYYHTVLWMEQVLKQLDAGEEATTTKSQVLDYLSYAVFQLGDLHRALELTRRLLSLDPSHERAGGNLRYFEQLLEEEREKTLTNQTEAELATPEGIYERPVDYLPERDVYESLCRGEGVKLTPRRQKRLFCRYHHGNRAPQLLIAPFKEEDEWDSPHIVRYYDVMSDEEIERIKEIAKPKLARATVRDPKTGVLTVASYRVSKSSWLEEDDDPVVARVNRRMQHITGLTVKTAELLQVANYGVGGQYEPHFDFSRNDERDTFKHLGTGNRVATFLNYMSDVEAGGATVFPDLGAAIWPKKGTAVFWYNLLRSGEGDYRTRHAACPVLVGCKWVSNKWFHERGQEFLRPCGSTEVD [P4HA2]”, the “solubility change mitosis (log2)” value in data set [1] is -0.0711. The thermal stability score in data set [2] (setting [5]) was 2.83; in data set [2] (cell cycle stage: mitosis), 4.61. Besides, in data set [3], the “solubility in G1/S (log2)” value is 0.0555. Also, the melting temperature was found to be 54.2 °C in data set [4] (cell cycle stage: G1/S) and 54.1 °C in data set [4] (cell cycle stage: mitosis).

For “MKMKLFQTICRQLRSSKFSVESAALVAFSTSSYSCGRKKKVNPYEEVDQEKYSNLVQSVLSSRGVAQTPGSVEEDALLCGPVSKHKLPNQGEDRRVPQNWFPIFNPERSDKPNASDPSVPLKIPLQRNVIPSVTRVLQQTMTKQQVFLLERWKQRMILELGEDGFKEYTSNVFLQGKRFHEALESILSPQETLKERDENLLKSGYIESVQHILKDVSGVRALESAVQHETLNYIGLLDCVAEYQGKLCVIDWKTSEKPKPFIQSTFDNPLQVVAYMGAMNHDTNYSFQVQCGLIVVAYKDGSPAHPHFMDAELCSQYWTKWLLRLEEYTEKKKNQNIQKPEYSE [MGME1]”, in data set [1], the “solubility change mitosis (log2)” value worked out at 0.0664. Moreover, the figures for the thermal stability score in data set [2] (setting [5]) and in data set [2] (cell cycle stage: mitosis) were -0.736 and -1.05, respectively. Also, the “solubility in G1/S (log2)” value in data set [3] is 0.384. The melting temperature was 52.9 °C in data set [4] (cell cycle stage: G1/S) and 53.5 °C in data set [4] (cell cycle stage: mitosis).

In the case of “MKPSGEDQAALAAGPWEECFQAAVQLALRAGQIIRKALTEEKRVSTKTSAADLVTETDHLVEDLIISELRERFPSHRFIAEEAAASGAKCVLTHSPTWIIDPIDGTCNFVHRFPTVAVSIGFAVRQELEFGVIYHCTEERLYTGRRGRGAFCNGQRLRVSGETDLSKALVLTEIGPKRDPATLKLFLSNMERLLHAKAHGVRVIGSSTLALCHLASGAADAYYQFGLHCWDLAAATVIIREAGGIVIDTSGGPLDLMACRVVAASTREMAMLIAQALQTINYGRDDEK [IMPA2]”, the “solubility change mitosis (log2)” value in data set [1] is -0.261. Further, the figures for the thermal stability score in data set [2] (setting [5]) and in data set [2] (cell cycle stage: mitosis) were -0.528 and -0.16, respectively. Moreover, the “solubility in G1/S (log2)” value in data set [3] was determined as 0.109. In addition, the melting temperature turned out to be 58.2 °C in data set [4] (cell cycle stage: G1/S) and 60.1 °C in data set [4] (cell cycle stage: mitosis).

Consider “MKVVNLKQAILQAWKERWSDYQWAINMKKFFPKGATWDILNLADALLEQAMIGPSPNPLILSYLKYAISSQMVSYSSVLTAISKFDDFSRDLCVQALLDIMDMFCDRLSCHGKAEECIGLCRALLSALHWLLRCTAASAERLREGLEAGTPAAGEKQLAMCLQRLEKTLSSTKNRALLHIAKLEEASSWTAIEHSLLKLGEILANLSNPQLRSQAEQCGTLIRSIPTMLSVHAEQMHKTGFPTVHAVILLEGTMNLTGETQSLVEQLTMVKRMQHIPTPLFVLEIWKACFVGLIESPEGTEELKWTAFTFLKIPQVLVKLKKYSHGDKDFTEDVNCAFEFLLKLTPLLDKADQRCNCDCTNFLLQECGKQGLLSEASVNNLMAKRKADREHAPQQKSGENANIQPNIQLILRAEPTVTNILKTMDADHSKSPEGLLGVLGHMLSGKSLDLLLAAAAATGKLKSFARKFINLNEFTTYGSEESTKPASVRALLFDISFLMLCHVAQTYGSEVILSESRTGAEVPFFETWMQTCMPEEGKILNPDHPCFRPDSTKVESLVALLNNSSEMKLVQMKWHEACLSISAAILEILNAWENGVLAFESIQKITDNIKGKVCSLAVCAVAWLVAHVRMLGLDEREKSLQMIRQLAGPLFSENTLQFYNERVVIMNSILERMCADVLQQTATQIKFPSTGVDTMPYWNLLPPKRPIKEVLTDIFAKVLEKGWVDSRSIHIFDTLLHMGGVYWFCNNLIKELLKETRKEHTLRAVELLYSIFCLDMQQVTLVLLGHILPGLLTDSSKWHSLMDPPGTALAKLAVWCALSSYSSHKGQASTRQKKRHREDIEDYISLFPLDDVQPSKLMRLLSSNEDDANILSSPTDRSMSSSLSASQLHTVNMRDPLNRVLANLFLLISSILGSRTAGPHTQFVQWFMEECVDCLEQGGRGSVLQFMPFTTVSELVKVSAMSSPKVVLAITDLSLPLGRQVAAKAIAAL [MED24]”, for which, in data set [1], the “solubility change mitosis (log2)” value worked out at 0.0385. Moreover, the results for the thermal stability score in data set [2] (setting [5]) and in data set [2] (cell cycle stage: mitosis) were 1.11 and 1.86, respectively. Also, the “solubility in G1/S (log2)” value in data set [3] was -0.322. In addition, the values for the melting temperature in data set [4] (cell cycle stage: G1/S) and in data set [4] (cell cycle stage: mitosis) were 50.8 °C and 52.2 °C, respectively.
